What all share (settings): both partners purified
For experiment [1], the target named is T1, human CD36 ectodomain (residues 35-439), C-terminal 8xHis and biotinylated BAP tag (human, UniProt P16671 35-439, biotin on the BAP tag (in vitro, BirA ligase)).
T1 construct: CD36, human, ectodomain residues 35-439; Construct for SPR; vector pHLsec-8H; also called CD36 wild-type; w.t; source: HEK293T, purified (TALON, size-exclusion chromatography), biotinylated in vitro with BirA; not shown: BAP tag, C-terminal, kept
T1 sequence (P16671 35-439): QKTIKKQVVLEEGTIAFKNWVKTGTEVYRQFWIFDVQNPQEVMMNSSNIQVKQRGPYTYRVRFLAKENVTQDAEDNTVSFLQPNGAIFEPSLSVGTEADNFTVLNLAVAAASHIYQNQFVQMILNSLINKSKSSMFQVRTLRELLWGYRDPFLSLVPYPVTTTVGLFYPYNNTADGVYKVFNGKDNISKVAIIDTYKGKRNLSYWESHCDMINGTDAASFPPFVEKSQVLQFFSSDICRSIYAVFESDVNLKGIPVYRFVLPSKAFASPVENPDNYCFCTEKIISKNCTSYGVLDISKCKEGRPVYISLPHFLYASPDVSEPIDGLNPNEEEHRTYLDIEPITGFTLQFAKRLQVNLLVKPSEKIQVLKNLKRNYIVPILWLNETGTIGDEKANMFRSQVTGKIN
Put plainly: SPR; biotinylated CD36 (wild type or F153A) immobilised on a CAPture chip to ~700 RU; CIDRα domains as analytes, two-fold dilutions from 400 nM (Supplementary Figure 10: 400 nM only), 240 s injection, 300 s dissociation; 25 °C, 20 mM HEPES pH 7.5, 0.15 M NaCl, 0.005% Tween20; affinities from equilibrium binding, one site-binding model. On the technique in general: Surface plasmon resonance follows binding to a sensor surface in real time, without labels.

Experiment [2] concerns the target T1, human CD36 ectodomain (residues …). Described as above. This is another data set of the same source.
The target in experiment [3] is T2, human CD36 ectodomain (residues 35-439) (human, UniProt P16671 35-439).
T2 construct: CD36, human, ectodomain residues 35-439; Cloned into pHLsec-8H (secretion vector); For crystallisation the complex was deglycosylated (endoglycosidase F1) and treated with carboxypeptidase Y in situ
T2 sequence (P16671 35-439): as above
Put plainly: SEC-MALS; coexpressed and purified CD36:MCvar1 CIDRα2.8 complex at 1 mg/ml, Superdex S200 10/300 GL, 10 mM HEPES pH 7.5, 0.15 M NaCl. (In general: SEC sorts molecules by how far they enter the pores of the column.)

The record followed here is article PMC5052687, “The structural basis for CD36 binding by the malaria parasite” (Nature Communications, 2016).

B1: MAL6P1.252 CIDRα2.1 domain (domain or fragment)
chain: PWCGVKPGGPPWKDNDIDSCGKKEISFSDKDTTDISILSTDRAKKNILQKLENFCRDTEHINHDIWKCHYENTDNDNCILQNENTGSEKQKIMPFDAFFFLWLTQMLDDSIEWRKKLKTCINNEKPTNCIRGCKKPCECFERWVEQKEEEWISIEKHFDKQRDISEEERYITLEYILNEFFMDKIEKAYGIEKSKELKEKLKSNKGHGIIRDTEHSQDAIKILLEHELEDAKKCTETHNDEKC
notes: CIDRα2.1 domain of the PfEMP1 MAL6P1.252, Plasmodium falciparum; also called CIDRα2.1 MAL6P1.252
As for B1, the Kd (as a rule, the equilibrium constant for the complex coming apart) in experiment [1] was 3.6 nM.

B2: IT4var30 CIDRα2.10 domain (domain or fragment)
chain: PWCGIEEQKVDGKWKAKNNGECAKVENKIYDPKKTTTIEILTGDNEKFGIYEKYNKFCANGKNGVTSGAPDTAPGKNGNQIVTWQCYYDKKKRSGQNNDNCVEGTWEKFTGKQTVKSYNVFFWDWVYHMLHDSLEWRERLNSCINNAKSQNCKNNKCNRECGCFAKWVVKKKDEWDKIKDHFNKQENIGQNVGFIEFNHYGVLEGVLDKDELLKNIKDTHADAKDIERIDKMLQQAGVVGGGRGGENNTIIDKFLQEEERFAKDCQQKQEEC
notes: CIDRα2.10 domain of the PfEMP1 IT4var30, Plasmodium falciparum; also called CIDRα2.10 IT4var30; IT4var30 (α2.10)
Molecule B2 returned a dissociation constant Kd in experiment [1] of 55 nM.

B3: IT4var14 CIDRα5 domain (domain or fragment)
chain: PWCGIEEQKDGKWKRINDHSACKEEELYTPKENAKYTKINVLTSGEGHEDIAKRLKEFCTKTQNGGGGSDDCGGNSDSSLCEPWQCYQPDQLEKVGGGEVDDKLKGAGGLCIFEKMKGEKKVKKQKTFNNFFNFWVAHVLKDSIDWRTQLTKCLSEDKLKKCEKGCKSNCECFKKWIEKKEKEWIKVKDQFNKQTDFLEWKHYLVLETILENYYFENIQKAYGDLKSIQEMKKMIKENKQNKNRTKDDEDALDVLFDHEKEEAEDCLDIHE
notes: CIDRα5 domain of the PfEMP1 IT4var14, Plasmodium falciparum; also called CIDRα5 IT4var14; IT4var14 (α5)
B3 displayed a Kd in experiment [1] of 180 nM.

B4: IT4var24 CIDRα2.2 domain (domain or fragment)
chain: PLCGVNGPKGNWTDIEDKECTLVEKKKYDSNNTTNIDILTADKSQKNILQKYNKFCKNGANDEKSATPTANGGGQIKNWQCYYDESKESGQNNNCILGKWEDFTGNEDVTSYNVFFYNSIIEMLNDSIEWKDKLNICINNKTGKCRKVCKNPCECYKRWIEKKKTELEKIKDHFRKQKDIGDAAQREMTLNITLNNNFLNDIKDAYPVKQQLQKIEERLKDKMQEDFIFERTKTSIDKFLQEEEQFAEKCIEKHKC
notes: CIDRα2.2 domain of the PfEMP1 IT4var24, Plasmodium falciparum; also called CIDRα2.2 IT4var24; IT4var24 (α2.2)
In experiment [1], B4 registered a Kd of 15.8 nM.

B5: MCvar1 PfEMP1 CIDRα2.8 domain (residues 576-745, C626S) (domain or fragment)
chain: EDKIMSYNAFFWMWVHDMLIDSIKWRDEHGRCINKDKGKTCIKGCNKKCISFQKWVEQKKTEWGKIKDHFRKQKDIPKDWTHDDFLQTLLMKDLLLEIIQDTYGDANEIKRIEALLEQAGVGGIDFAALAGLYTKGFVAEKDTTIDKLLQHEQKEADKCLKTHTDDTCPP
notes: CIDRα2.8 domain of the MCvar1 PfEMP1, Plasmodium falciparum; the reverse cloning primer (D1:p11) ends at ...DTCPP; also called MCvar1 CIDRα2.8; MC179 CIDRα2.8; source: HEK293, secreted, purified (TALON, size-exclusion chromatography); for the crystal co-expressed with CD36 in the presence of kifunensine
B5 returned a Kd in experiment [2] of 12 nM.

B6: MCvar1 PfEMP1 CIDRα2.8 domain (residues 576-745, C626S) (domain or fragment)
chain: EDKIMSYNAFFWMWVHDMLIDSIKWRDEHGRCINKDKGKTCIKGCNKKCISFQKWVEQKKTEWGKIKDHFRKQKDIPKDWTHDDFLQTLLMKDLLLEIIQDTYGDANEIKRIEALLEQAGVGGIDFAALAGLYTKGFVAEKDTTIDKLLQHEQKEADKCLKTHTDDTCPP
notes: PfEMP1 MCvar1, Plasmodium falciparum, CIDRα2.8 domain, residues 576-745; Synthetic codon-optimised cDNA (GeneArt) cloned into pHLsec-8H; also called MCvar1 CIDRα2.8; source: HEK293 cells, secreted, purified (TALON, size-exclusion chromatography); coexpressed with CD36 with kifunensine for the structure and SEC-MALS, expressed individually for SPR
For B6, the stoichiometry N (usually the number of molecules, sites or subunits per partner or assembly) in experiment [3] came out at 1.

B7: MCvar1 CIDRα2.8 domain (residues 576-745, C626S) F660N:Q662T (domain or fragment)
chain: EDKIMSYNAFFWMWVHDMLIDSIKWRDEHGRCINKDKGKTCIKGCNKKCISFQKWVEQKKTEWGKIKDHFRKQKDIPKDWTHDDNLTTLLMKDLLLEIIQDTYGDANEIKRIEALLEQAGVGGIDFAALAGLYTKGFVAEKDTTIDKLLQHEQKEADKCLKTHTDDTCPP
modifications: N-linked glycan at the introduced site on a small fraction of the protein
notes: CIDRα2.8 domain of the MCvar1 PfEMP1, Plasmodium falciparum; Introduces an N-linked glycosylation site into site 1 of the crystal; also called site 1 mutant; site 1; source: HEK293, secreted, purified (TALON, size-exclusion chromatography)
Regarding B7, binding in experiment [2] was characterised by a dissociation constant (Kd) of 306 nM.

B8: MCvar1 CIDRα2.8 domain (residues 576-745, C626S) Q648A (domain or fragment)
chain: EDKIMSYNAFFWMWVHDMLIDSIKWRDEHGRCINKDKGKTCIKGCNKKCISFQKWVEQKKTEWGKIKDHFRKAKDIPKDWTHDDFLQTLLMKDLLLEIIQDTYGDANEIKRIEALLEQAGVGGIDFAALAGLYTKGFVAEKDTTIDKLLQHEQKEADKCLKTHTDDTCPP
notes: CIDRα2.8 domain of the MCvar1 PfEMP1, Plasmodium falciparum; source: HEK293, secreted, purified (TALON, size-exclusion chromatography)
As for B8, the Kd in experiment [2] worked out at 362 nM.

B9: MCvar1 CIDRα2.8 domain (residues 576-745, C626S) D680N:N682T (domain or fragment)
chain: EDKIMSYNAFFWMWVHDMLIDSIKWRDEHGRCINKDKGKTCIKGCNKKCISFQKWVEQKKTEWGKIKDHFRKQKDIPKDWTHDDFLQTLLMKDLLLEIIQDTYGNATEIKRIEALLEQAGVGGIDFAALAGLYTKGFVAEKDTTIDKLLQHEQKEADKCLKTHTDDTCPP
modifications: N-linked glycan at the introduced site on the majority of the protein
notes: CIDRα2.8 domain of the MCvar1 PfEMP1, Plasmodium falciparum; Introduces an N-linked glycosylation site into site 2 of the crystal; also called site 2 mutant; site 2; source: HEK293, secreted, purified (TALON, size-exclusion chromatography)
In experiment [2], B9 showed a Kd of 18 nM.

B10: MCvar1 CIDRα2.8 domain (residues 576-745, C626S) E672A (domain or fragment)
chain: EDKIMSYNAFFWMWVHDMLIDSIKWRDEHGRCINKDKGKTCIKGCNKKCISFQKWVEQKKTEWGKIKDHFRKQKDIPKDWTHDDFLQTLLMKDLLLAIIQDTYGDANEIKRIEALLEQAGVGGIDFAALAGLYTKGFVAEKDTTIDKLLQHEQKEADKCLKTHTDDTCPP
notes: as for B8
B10: the Kd in experiment [2] amounted to 86 nM.

B11: IT4var33 CIDRα2.4 domain (domain or fragment)
chain: PLCGLGMQEPPWNPKKDTDCEDRGIKTFDDRNSTPINLLVKDVTGTSIVEKLGGLCGNGAKKNIQTWKCRFESSQNYYCVLQNDKKNTPQQEIESFNSLFWHWITEMLKDSIDWRKEHENCINNNNTCKKGCKSKCECFEKWVKRMKEEWKQVLEVYDKQPDFKEVFTPYFTLGYLLKEYFTKIKAPYEEVESVQEFIKEMEQIIDENSNNINATKENNSITKFLQHEEGIATECKKTHNEEKC
notes: CIDRα2.4 domain of the PfEMP1 IT4var33, Plasmodium falciparum; also called CIDRα2.4 IT4var33; IT4var33 (α2.4)
For B11, binding in experiment [1] was put at a Kd of 3.3 nM.

B12: HB3var13 CIDRα3.2 domain (domain or fragment)
chain: PLCGVKKEKGTWVRKDSMNDCPRIKLYKPINDKVGTPINFLYSGDGQTEIAEKLKKFCRTENGSDGSSSARANGASGDKNGGSGSQELYQYWKCYQIGDLQKVREGEDDEDDGQYDQEVENAGGLCILQKTNGKENVNKQKTSHEIQKTFNPFFYYWVVHMLKDSIHWRTEKIKSCINNTNELKACKNNKKCNSDCDCFKRWVKQKGKEWGQIKVHFKTQDIRGKVVNGNTVVSFFLDHDELLEGVLDKGLLLESLQEAYGNAEDIKHIKKLLQETDVVGGGEHKTTIDFLLKEELNEAEECLKKQKDNEC
notes: CIDRα3.2 domain of the PfEMP1 HB3var13, Plasmodium falciparum; also called CIDRα3.2 HB3var13; HB3var13 (α3.2)
For B12, the Kd in experiment [1] amounted to 12.3 nM.

B13: IT4var61 CIDRα2.7 domain (domain or fragment)
chain: PWCGVKRNGGGWKAKSDGECAKEKKTYKKKNITEIPVLTPDKEKHNILQKYENFCKNSDGNNGDQIKNWQCYYEEKDESDNDGDSNICVLQNENIGKKEEKSMPYHPFFWKWVTEMLIDSMYWRKELKRCINKETKACKNGCKNNCDCYKRWVEEKKKEWGQIKTHFNTQEDMREDIGENTDPGIILAALLNIEDLFENIKDTYGDVKEIKDINQMLEKENEENEGTAGADSKKKNTIDLMINHEQKDAQKCVTNNPDKDC
notes: CIDRα2.7 domain of the PfEMP1 IT4var61, Plasmodium falciparum; also called CIDRα2.7 IT4var61; IT4var61 (α2.7)
Take B13: in experiment [1], the Kd worked out at 72 nM.

B14: IT4var15 CIDRα3.5 domain (domain or fragment)
chain: PGCGVELIGNEWKEKNKGECKGGKRYNIPKGTKHNVIPVLSFGDEHKEIIEKIEQFCAESNSDSSKLTEQWKCYYGDKEYEVCTLENRNKSEEDPEEIQKTFHNFFYFWIRHLLNDSIEWRDKINNCIEKAKEGKCKNECKTDCGCFQRWIGKKKEEWGEIKKHFKTQDGFSIFGNNYDFVLENVLNIDELFQDITEAYGNSQKIQGIKDTLAKKKTQAADDATEQKNTIDLLFEYDSEEAEKCKKIQEEC
notes: CIDRα3.5 domain of the PfEMP1 IT4var15, Plasmodium falciparum; also called CIDRα3.5 IT4var15; IT4var15 (α3.5)
For the molecule B14, the equilibrium dissociation constant (Kd) in experiment [1] was 3 nM.

B15: IT4var12 CIDRα6 domain (domain or fragment)
chain: PWCGLKKQADGTWKRLYENDPQCPIKPKYEPPKGEEPTEIDVLYTGKENKDIIVKLREFCKTDGNTGFKNEEWNCYYQVGNDKCVLENGEELGGEKKVKDYDNFLMFWVAHMLKDSIEWRSKLSNCLKSDKKTCIKKCNDNCKCYEKWIGKKKVEWTQIKKHFDKQTDFQGWGRYFVLETVLEGDQFFTDITKAYGDAREIVHIQEMLQKKKEQVLHEDASNMKTIIDELLDHELKEAKQCIVNHKDNNC
notes: CIDRα6 domain of the PfEMP1 IT4var12, Plasmodium falciparum; also called CIDRα6 IT4var12; IT4var12 (α6)
B15 registered an equilibrium dissociation constant (Kd) in experiment [1] of 6.6 nM.

B16: IT4var45 CIDRα2.9 domain (domain or fragment)
chain: PWCGVNGTKGNWTPKNDDDCKPGNEYKNYENTQIPILTGDKTKSEIVERYRKFCKNNGKNGANGREGGVGGSENGAASNSDNATTGYCGTNNNDKDPSLCEKWTCYYKKKEKNDGKKAINFCVLQDDKVGKSQEKSMHYNSFFWDWVYHMLHDSLDWRKQLGRCINKKEETKCIGSCNKKCECFAKWVGHKQQEWEQIKKHFLKQDDIGQETNCDPMVTLEILLDIDELLKNIKDTHANADDIDRIQNMLQQAGFDGGVAALVGRCTEGFVAEKDTTIDKFLEKELQEAEKCLETHKEKC
notes: CIDRα2.9 domain of the PfEMP1 IT4var45, Plasmodium falciparum; also called CIDRα2.9 IT4var45; IT4var45 (α2.9)
As to B16, the affinity in experiment [1], expressed as Kd, was 23 nM.
